Results taken from patent publication US20080300385A1.

Legend:
[1] = target: Tat protein from HIV-1 strain BH10 (HIV-1 strain BH10) (UniProt P69697); test: SPR, kinetic experiment (FIG. 5B)
[2] = target: Tat protein from HIV-1 strain BH10 (HIV-1 strain BH10) (UniProt P69697); test: ITC in free solution (FIG. 7)

Work on “gp140 Env protein from HIV-1 strain SF162 (o-gp140SF162), trimer (from UniProt P19550 32-675)” yielded a Kd [1] of 37 nM and a stoichiometry (Tat molecules per Env trimer) (Tat molecules per Env trimer) [2] of 3.
